Patent publication US20110206671A1, “AXON REGENERATION PROMOTER” (priority 2004, published 2011)

B1: RGM-like protein: rat protein homologous to chicken repulsive guidance molecule, released from RGM-CHO cells by PI-PLC; SEQ ID NO: 4 (protein, listed as Rattus norvegicus)
chain: MGRGAGRSALGLWPTLAFLLCSFPAAISPCKILKCNSEFWSATSSGSHAPASDDVPEFCAALRTYALCTRRTARTCRGDLAYHSAVHGIEDLMSQHNCSKDGPTSQPRVRTLPPAGDSQERSDSPEICHYEKSFHKHSAAPNYTHCGLFGDPHLRTFTDHFQTCKVQGAWPLIDNNYLNVQVTNTPVLPGSAATATSKLTIIFKNFQECVDQKVYQAEMDELPSAFADGSKNGGDKHGANSLKITEKVSGQHVEIQAKYIGTTIVVRQVGRYLTFAVRMPEEVVNAVEDRDSQGLYLCLRGCPLNQQIDFQAFRANAESPRRPAAASPSPVVPETFPYETAVAKCKEKLPVEDLYYQACVFDLLTTGDVNFTLAAYYALEDGKMLHSNKDKLHLFERTRELPGAVAAAAFPLAPEMLPGTVTLLVLLPLFW

Assays:
[1] = tested on: cerebellar granule neurons on rat RGM-like protein-expressing CHO cells; experiment: Axon growth assay, coculture of cerebellar granule neurons on RGM-CHO cells; type: cell-based; details: 10 μM Y27632 added, 24 hours, compared with control CHO cells
Procedure: Cerebellar granule cells from rat pups at 8 days post-natal (P8) were dissociated by trypsinization (0.25% trypsin in PBS, 37° C., 15 minutes); resuspended in serum-containing medium; triturated; and washed three times with PBS. For the coculture assay, neurons were plated onto a confluent monolayer of RGM-CHO cells or control CHO cells in chamber slides. 10 μM Y27632 (Welfide Corporation, Osaka) was added to the cultures to inhibit ROCK (Rho kinase). The cultures were grown for 24 hours in serum-free DMEM/F12 medium.
(§1) For the soluble RGM assay, confluent monolayers of RGM-CHO cells or control CHO cells were incubated in serum-free DMEM/F12 with or without 2.5 U/mL PI-PLC (phosphatidylinositol-specific phospholipase C, Sigma). After the culture were centrifuged for 10 minutes at 13000 g, floating cells were removed by collecting the supernatant. A portion of the supernatant was subjected to Western blot analysis. Neurons were plated on the conditioned media on poly-L-lysine-coated chamber slides and were incubated for 12 or 24 hours. For the axon assay, the cells were fixed with 4% (w/v) paraformaldehyde and immunostained with a monoclonal antibody that recognizes β-tubulin III protein specifically present in neurons (TuJ1, 1:1000, Covance Research Products, Inc., Denver, USA). The length of the longest neurite for each β-tubulin III-positive neuron was then measured.

[2] = tested on: cerebellar granule neurons; experiment: Soluble RGM axon growth assay with conditioned media; type: cell-based, rat; details: medium obtained by PI-PLC treatment of RGM-like protein-expressing CHO cells; versus control CHO medium
Procedure: as §1

[3] = tested on: RhoA; experiment: Affinity precipitation of GTP-RhoA; type: cell-based, rat; details: cerebellar neurons from 7-day postnatal rats; 30 minutes after conditioned medium
Procedure: Cells were lysed in 50 mM Tris (pH 7.5) containing 1% Triton X-100 (TM), 0.5% sodium deoxycholate, 0.1% SDS, 500 mM NaCl, 10 mM MgCl2, 10 μg/mL leupeptin, and 10 μg/mL aprotinin.
The cell lysate was cleared by centrifugation at 4° C. for 10 minutes×13000 g, and the supernatant was incubated for 45 minutes at 4° C. with 20 μg GST-Rho binding domain of Rhotekin beads (TM, Upstate Biotech). The beads were washed four times with washing buffer (50 mM Tris (pH 7.5) containing 1% Triton X-100 (TM), 150 mM NaCl, 10 mM MgCl2, and 10 μg/mL each of leupeptin and aprotinin). Bound Rho was detected by Western blotting using monoclonal antibody against RhoA (Santa Cruz Biotech, Santa Cruz, Calif., USA).
The RhoA activity in neurons was measured. Conditioned medium was added to cerebellar neurons from 7-day postnatal rats and the RhoA activity was measured after 30 minutes had elapsed (FIG. 6).

| Molecule | axon growth (average length of the longest axon of each neuron) [1] | axon growth of neurons treated with conditioned medium [2] | RhoA activity in neurons (GTP-RhoA) [3] |
| --- | --- | --- | --- |
| CC(N)[C@H]1CC[C@H](C(=O)Nc2ccncc2)CC1 (stereo partly drawn) [Y27632] | axon growth was about the same as for the control | – | – |
| B1 | – | significantly inhibited | Rho activation was confirmed |
